1 molecule from PMC3587646, “Structural Characterization of a Recombinant Fusion Protein by Instrumental Analysis and Molecular Modeling” (PLoS ONE, 2013) can be followed below.

What is called Kd is the equilibrium constant for the complex coming apart.

The test addresses VEGF-A (UniProt P15692 1-395). The experiment in a line: SPR; unpublished data of the authors; format and conditions not told. As to conditions: both partners purified. Background: Surface plasmon resonance follows binding to a sensor surface in real time, without labels.

B1: Conbercept (Fc fusion)
chain: GRPFVEMYSEIPEIIHMTEGRELVIPCRVTSPNITVTLKKFPLDTLIPDGKRIIWDSRKGFIISNATYKEIGLLTCEATVNGHLYKTNYLTHRQTNTIIDVVLSPSHGIELSVGEKLVLNCTARTELNVGIDFNWEYPSSKHQHKKLVNRDLKTQSGSEMKKFLSTLTIDGVTRSDQGLYTCAASSGLMTKKNSTFVRVHEKPFVAFGSGMESLVEATVGERVRIPAKYLGYPPPEIKWYKNGIPLESNHTIKAGHVLTIMEVSERDTGNYTVILTNPISKEKQSHVVSLVVYVPP
modifications: seven N-glycosylation sites, all occupied (the N in the tryptic peptides 29-39 VTSPNITVTLK, 60-69 GFIISNATYK, 117-124 LVLNCTAR, 193-198 NSTFVR, 242-253 NGIPLESNHTIK, 267-281 DTGNYTVILTNPISK, 372-380 …); two inter-chain disulfide bonds at the Fc hinge
As to B1, the Kd turned out to be 0.429 nM.
